The target in data set [1] is Bacillus coagulans glycerol dehydrogenase (GlyDH/GDH), native, strain P4-102B, SEQ ID NO: 3 (Heyndrickxia coagulans, UniProt A0AAN0T381). The class given is biochemical. The following applies: native enzyme. As to the method: (§1) Cultures were grown (LB-glucose medium in pH-controlled fermenters) to mid-exponential phase, harvested, and used for enzyme assays as previously described (23). Glycerol dehydrogenase from strain QZ19 was purified using differential ammonium sulfate precipitation followed by anion-exchange and hydrophobic interaction chromatography. GlyDH and GlyDH* were also purified as N-terminal His-tagged enzymes (33). GlyDH and LDH were assayed using standard methods (34, 35).
Bacillus coagulans glycerol dehydrogenase (GlyDH/GDH), native, strain P4-102B, SEQ ID NO: 3, sequence (A0AAN0T381 entry or part of it): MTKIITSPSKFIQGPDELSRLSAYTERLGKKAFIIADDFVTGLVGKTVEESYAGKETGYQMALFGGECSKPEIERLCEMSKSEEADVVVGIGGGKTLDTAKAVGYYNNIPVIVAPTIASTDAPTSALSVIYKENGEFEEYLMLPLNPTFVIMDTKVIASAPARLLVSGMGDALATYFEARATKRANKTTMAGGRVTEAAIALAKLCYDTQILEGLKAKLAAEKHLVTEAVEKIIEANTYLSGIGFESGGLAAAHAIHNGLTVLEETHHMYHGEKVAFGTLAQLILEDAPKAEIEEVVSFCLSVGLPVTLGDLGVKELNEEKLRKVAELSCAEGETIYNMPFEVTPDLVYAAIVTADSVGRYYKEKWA
(§2) During the development of a D-lactate producing B. coagulans derivative (strain QZ19), a glycerol dehydrogenase (GDH) with two mutations (D121N and F245S) evolved to catalyze the reduction of pyruvate to D-lactate (Table 1 and FIG. 7). The first derivative that produced a significant D-lactate titer, strain QZ15, carried a single mutation that changed the amino acid phenylalanine at position 245 to serine. As strain QZ15 was further selected for higher lactate productivity, the GDH protein acquired a second mutation in amino acid position 121 (D121N) (FIG. 15). […] In order to evaluate the role of each of these two mutations in the catalysis of pyruvate reduction to D-lactate, GDH/LDH enzyme with either of the two substitutions (D121N or F245S) and the protein with both changes were expressed in E. coli, purified, and their biochemical properties were determined.

Data set [2] addresses T1, Bacillus coagulans glycerol dehydrogenase (GlyDH/GDH, native SEQ ID NO: 3) variant D121N (Heyndrickxia coagulans, UniProt A0AAN0T381, D121N).
T1 sequence (A0AAN0T381 1-367 D121N): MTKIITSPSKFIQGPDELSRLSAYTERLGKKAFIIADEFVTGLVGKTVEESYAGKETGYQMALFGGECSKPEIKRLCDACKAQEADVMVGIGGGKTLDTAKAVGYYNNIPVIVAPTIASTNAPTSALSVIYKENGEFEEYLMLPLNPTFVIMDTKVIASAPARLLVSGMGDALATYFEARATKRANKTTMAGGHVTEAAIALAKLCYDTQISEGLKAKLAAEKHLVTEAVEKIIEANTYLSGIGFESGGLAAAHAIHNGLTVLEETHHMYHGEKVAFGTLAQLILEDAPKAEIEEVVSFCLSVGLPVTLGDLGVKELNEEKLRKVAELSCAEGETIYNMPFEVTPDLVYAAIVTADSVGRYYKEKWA
Kind of data set: Kinetic properties of mutated glycerol dehydrogenase D121N. The class given is biochemical. As to conditions: D121N alone; compared to native enzyme; in words. How it is done: as §1
(§3) During the development of a D-lactate producing B. coagulans derivative (strain QZ19), a glycerol dehydrogenase (GDH) with two mutations (D121N and F245S) evolved to catalyze the reduction of pyruvate to D-lactate (Table 1 and FIG. 7). The first derivative that produced a significant D-lactate titer, strain QZ15, carried a single mutation that changed the amino acid phenylalanine at position 245 to serine. As strain QZ15 was further selected for higher lactate productivity, the GDH protein acquired a second mutation in amino acid position 121 (D121N) (FIG. 15). Combination of these two mutations led strain QZ19 to produce D-lactic acid at a titer close to 100 g/L in 48 hours at pH 5.0 and 50° C. in pH-controlled fermentations. In order to evaluate the role of each of these two mutations in the catalysis of pyruvate reduction to D-lactate, GDH/LDH enzyme with either of the two substitutions (D121N or F245S) and the protein with both changes were expressed in E. coli, purified, and their biochemical properties were determined.

Data set [3] deals with CC(=O)C(=O)O. The data set is described as above. The following applies: other: D121N, 55° C., pH 5.0. In kind it is biochemical, Bacillus coagulans. As to the method: as §1, §3
In another data set the test system is C[C@@H](O)C(=O)O. Described as above. The class given is biochemical, Bacillus coagulans. The following applies: other: D121N, 55° C., pH 5.0. As to the method:
as §1, §3

Data set [4] relates to OCC(O)CO. Described as above. In kind it is biochemical, Bacillus coagulans. As to conditions: other: D121N, 55° C., pH 5.0. As to the method:
as §1, §3

Data set [5] concerns CC(=O)C(=O)O. Nature of the data set: Kinetic properties of mutated glycerol dehydrogenase F245S. In kind it is biochemical, Bacillus coagulans. As to conditions: other: F245S, 55° C., pH 5.0. As to the method: as §1, §3
Data set [6] deals with OCC(O)CO. The description is as above. The following applies: other: F245S, 55° C., glycerol oxidation, pyruvate reduction or lactate oxidation, pH 5.0. In kind it is biochemical, Bacillus coagulans. How it is done:
as §1, §3

Substrate in data set [7]: CC(=O)C(=O)O
Kind of data set: purified protein, by the assay type. The following applies: other: enzyme with both changes; pH 5.0; 50.0 °C.

Substrate in data set [8]: OCC(O)CO
Kind of data set: purified protein, by the assay type. The following applies: other: column head, D121N; 55° C.; pH 5.0; 55.0 °C.

Substrate in data set [9]: OCC(O)CO
Kind of data set: purified protein, by the assay type. The class given is biochemical, Bacillus coagulans. As to conditions: other: Native, 55° C., glycerol oxidation, pyruvate reduction or lactate oxidation, pH 5.0. How it is done: as §1, §2

Substrate in data set [10]: NC(=O)C1=CN([C@@H]2O[C@H](COP(=O)(O)OP(=O)(O)OC[C@H]3O[C@@H](n4cnc5c(N)ncnc54)[C@H](O)[C@@H]3O)[C@@H](O)[C@H]2O)C=CC1
Kind of data set: purified protein, by the assay type. The following applies: other: Native, 55° C., glycerol oxidation, pyruvate reduction or lactate oxidation, pH 5.0.

Where a chain is given by its changes, count along the chain named. Numbers in names are those of the source.

On to `OCC(O)CO` [Glycerol], for which, in data set [1], the “efficiency at oxidizing glycerol with NAD^+ relative to reducing pyruvate using NADH” value is recorded as “about 1,000 times”. For the same molecule, the “change in apparent Km for glycerol” value in data set [2] was “slight increase”.
In general, kcat refers to the number of substrate molecules converted per active site and unit of time at saturation. One may read the kcat/Km as the turnover number divided by the Michaelis constant. “Bacillus coagulans glycerol dehydrogenase (GlyDH/GDH, native SEQ ID NO: 3) variant D121N (Heyndrickxia coagulans; D121N)”: the kcat is 2.0 s⁻¹ with CC(=O)C(=O)O [3], 1.9 s⁻¹ with C[C@@H](O)C(=O)O and 13.2 s⁻¹ in the data set with OCC(O)CO [4]. For the same molecule, the figures for the kcat/Km in the data set with CC(=O)C(=O)O [3], with C[C@@H](O)C(=O)O and with OCC(O)CO [4] were 3 M⁻¹ s⁻¹, 8 M⁻¹ s⁻¹ and 100 M⁻¹ s⁻¹, respectively.
As for “Bacillus coagulans glycerol dehydrogenase (GlyDH/GDH, native SEQ ID NO: 3) variant F245S (Heyndrickxia coagulans; F245S)”, in the data set on CC(=O)C(=O)O [5], the catalytic constant (kcat) was found to be 19.5 s⁻¹ and the kcat/Km is 80 M⁻¹ s⁻¹. In the data set with OCC(O)CO [6], the kcat is 62.5 s⁻¹ and the kcat/Km was determined as 800 M⁻¹ s⁻¹.

B1: Bacillus coagulans glycerol dehydrogenase (GlyDH/GDH, native SEQ ID NO: 3) variant F245S, D121N (GlyDH*, strain QZ19, SEQ ID NO: 1) (Heyndrickxia coagulans; … (protein)
chain: MTKIITSPSKFIQGPDELSRLSAYTERLGKKAFIIADDFVTGLVGKTVEESYAGKETGYQMALFGGECSKPEIERLCEMSKSEEADVVVGIGGGKTLDTAKAVGYYNNIPVIVAPTIASTNAPTSALSVIYKENGEFEEYLMLPLNPTFVIMDTKVIASAPARLLVSGMGDALATYFEARATKRANKTTMAGGRVTEAAIALAKLCYDTQILEGLKAKLAAEKHLVTEAVEKIIEANTYLSGIGSESGGLAAAHAIHNGLTVLEETHHMYHGEKVAFGTLAQLILEDAPKAEIEEVVSFCLSVGLPVTLGDLGVKELNEEKLRKVAELSCAEGETIYNMPFEVTPDLVYAAIVTADSVGRYYKEKWA
Broadly, the Km is the substrate concentration at which the rate is half of its maximum. As to B1, the Km in [7] amounted to 51000 µM. For the same molecule, in [8], the kcat is 16.7 s⁻¹ and the kcat/Km worked out at 100 M⁻¹ s⁻¹.

B2: Bacillus coagulans glycerol dehydrogenase (GlyDH/GDH), native, strain P4-102B, SEQ ID NO: 3 (Heyndrickxia coagulans) (protein)
chain: B1 chain with N121D, S245F
For B2, in data set [9], the kcat amounted to 28.0 s⁻¹ and the kcat/Km is 2400 M⁻¹ s⁻¹. Moreover, the Km in data set [10] came to 400 µM.

Values taken from patent publication US9745556B2, “Variants of glycerol dehydrogenase having D-lactate dehydrogenase activity and uses thereof” (UNIVERSITY OF FLORIDA RESEARCH FOUNDATION, INC., priority 2011, dated 2017).
